kcat, Km and K0.5 data for four proteins are collected here from paper PMC6905088 (Biochemical pharmacology, 2019).

As usually defined, the Km is the concentration of substrate that gives half-maximal velocity.

Substrate in data set [1]: CN(C/C=C/C#CC(C)(C)C)Cc1cccc2ccccc12
The data set is described as follows: cells, lysate or membranes named. To be noted: substrate terbinafine, pH 7.4, 37.0 °C.

Substrate in data set [2]: CN(C/C=C/C#CC(C)(C)C)Cc1cccc2ccccc12
[3] abbreviates: other: CYP2C9, Pathway 2 Step 2.1.
[4] abbreviates: other: CYP2C8, Pathway 2 Step 2.1.
Where [5] appears, read: other: CYP1A2, Pathway 1 Step 1.
[6] abbreviates: other: CYP1A2, Pathway 2 Step 2.1.

Several values for one entry are separate records, joined by “and”; a condition that tells them apart may be missing. Equal values may be shown once. Read-outs that look alike come from different tables or passages of the source.

B1: CYP2C9 (Homo sapiens) (protein)
chain: MDSLVVLVLCLSCLLLLSLWRQSSGRGKLPPGPTPLPVIGNILQIGIKDISKSLTNLSKVYGPVFTLYFGLKPIVVLHGYEAVKEALIDLGEEFSGRGIFPLAERANRGFGIVFSNGKKWKEIRRFSLMTLRNFGMGKRSIEDRVQEEARCLVEELRKTKASPCDPTFILGCAPCNVICSIIFHKRFDYKDQQFLNLMEKLNENIKILSSPWIQICNNFSPIIDYFPGTHNKLLKNVAFMKSYILEKVKEHQESMDMNNPQDFIDCFLMKMEKEKHNQPSEFTIESLENTAVDLFGAGTETTSTTLRYALLLLLKHPEVTAKVQEEIERVIGRNRSPCMQDRSHMPYTDAVVHEVQRYIDLLPTSLPHAVTCDIKFRNYLIPKGTTILISLTSVLHDNKEFPNPEMFDPHHFLDEGGNFKKSKYFMPFSAGKRICVGEALAGMELFLFLTSILQNFNLKSLVDPKNLDTTPVVNGFASVPPFYQLCFIPV
Take B1: in data set [1] (other: CYP2C9, Pathway 1 Step 1), the kcat is given as 800 ± 170 pmol/min/nmol protein. Moreover, in data set [1] (setting [3]), the Km is 20 ± 5.1 µM and the kcat amounted to 400 ± 19 pmol/min/nmol protein. In data set [1] (other: CYP2C9, Hill equation), the K0.5 came to 72 ± 92 µM.

B2: CYP2C8 (Homo sapiens) (protein)
chain: MEPFVVLVLCLSFMLLFSLWRQSCRRRKLPPGPTPLPIIGNMLQIDVKDICKSFTNFSKVYGPVFTVYFGMNPIVVFHGYEAVKEALIDNGEEFSGRGNSPISQRITKGLGIISSNGKRWKEIRRFSLTTLRNFGMGKRSIEDRVQEEAHCLVEELRKTKASPCDPTFILGCAPCNVICSVVFQKRFDYKDQNFLTLMKRFNENFRILNSPWIQVCNNFPLLIDCFPGTHNKVLKNVALTRSYIREKVKEHQASLDVNNPRDFIDCFLIKMEQEKDNQKSEFNIENLVGTVADLFVAGTETTSTTLRYGLLLLLKHPEVTAKVQEEIDHVIGRHRSPCMQDRSHMPYTDAVVHEIQRYSDLVPTGVPHAVTTDTKFRNYLIPKGTTIMALLTSVLHDDKEFPNPNIFDPGHFLDKNGNFKKSDYFMPFSAGKRICAGEGLARMELFLFLTTILQNFNLKSVDDLKNLNTTAVTKGIVSLPPSYQICFIPV
In the case of B2, in data set [1] (setting [4]), the Michaelis constant (Km) is 72 ± 12 µM and the kcat is on record as 260 ± 12 pmol/min/nmol protein.

B3: CYP2D6 (Homo sapiens) (protein)
chain: MGLEALVPLAVIVAIFLLLVDLMHRRQRWAARYPPGPLPLPGLGNLLHVDFQNTPYCFDQLRRRFGDVFSLQLAWTPVVVLNGLAAVREALVTHGEDTADRPPVPITQILGFGPRSQGVFLARYGPAWREQRRFSVSTLRNLGLGKKSLEQWVTEEAACLCAAFANHSGRPFRPNGLLDKAVSNVIASLTCGRRFEYDDPRFLRLLDLAQEGLKEESGFLREVLNAVPVLLHIPALAGKVLRFQKAFLTQLDELLTEHRMTWDPAQPPRDLTEAFLAEMEKAKGNPESSFNDENLRIVVADLFSAGMVTTSTTLAWGLLLMILHPDVQRRVQQEIDDVIGQVRRPEMGDQAHMPYTTAVIHEVQRFGDIVPLGVTHMTSRDIEVQGFRIPKGTTLITNLSSVLKDEAVWEKPFRFHPEHFLDAQGHFVKPEAFLPFSAGRRACLGEPLARMELFLFFTSLLQHFSFSVPTGQPRPSHHGVFAFLVSPSPYELCAVPR
As to B3, in data set [2], the K0.5 is 16 ± 3.2 µM and 25 ± 4.1 µM.

B4: CYP1A2 (Homo sapiens) (protein)
chain: MALSQSVPFSATELLLASAIFCLVFWVLKGLRPRVPKGLKSPPEPWGWPLLGHVLTLGKNPHLALSRMSQRYGDVLQIRIGSTPVLVLSRLDTIRQALVRQGDDFKGRPDLYTSTLITDGQSLTFSTDSGPVWAARRRLAQNALNTFSIASDPASSSSCYLEEHVSKEAKALISRLQELMAGPGHFDPYNQVVVSVANVIGAMCFGQHFPESSDEMLSLVKNTHEFVETASSGNPLDFFPILRYLPNPALQRFKAFNQRFLWFLQKTVQEHYQDFDKNSVRDITGALFKHSKKGPRASGNLIPQEKIVNLVNDIFGAGFDTVTTAISWSLMYLVTKPEIQRKIQKELDTVIGRERRPRLSDRPQLPYLEAFILETFRHSSFLPFTIPHSTTRDTTLNGFYIPKKCCVFVNQWQVNHDPELWEDPSEFRPERFLTADGTAINKPLSEKMMLFGMGKRRCIGEVLAKWEIFLFLAILLQQLEFSVPPGVKVDLTPIYGLTMKHARCEHVQARLRFSIN
In the case of B4, the Michaelis constant (Km) is 75 ± 42 µM and 31 ± 17 µM in data set [1] (setting [5]); 120 ± 23 µM in data set [1] (setting [6]). In addition, the figures for the kcat in data set [1] (setting [5]) and in data set [1] (setting [6]) were 100 ± 12 pmol/min/nmol protein and 530 ± 38 pmol/min/nmol protein, respectively. For the same protein, the K0.5 in data set [1] (other: CYP1A2, Hill equation) stood at 130 ± 87 µM; in data set [1] (other: CYP1A2) it was 45 ± 5.7 µM.
